According to the supplement of paper PMC9170038:

How the values were obtained:
MS2 coat protein [1] = assay: apparent KD of MS2 coat protein, switch OFF state (with FMN for OFF switches, without FMN for ON switches); designed switch direction (-1 OFF switch, 1 ON switch): -1; higher = weaker reporter binding; details: FMN input: 0 or 200 uM; Eterna round: R93 (includes R88 designs)
Outline: (§1)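 The designed RNA switches were transcribed on-chip from Illumina sequencing clusters. In 100 mM Tris-HCl pH 7.5, 80 mM KCl and 4 mM MgCl2, without or with constant ligand, they were titrated with SNAP-549-labelled MS2 coat protein from 0.7 or 1.5 nM to 3 µM in twofold steps. Apparent KD is the per-design median of normalised cluster binding-curve fits.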

MS2 coat protein [2] = assay: apparent KD of MS2 coat protein, switch ON state; designed switch direction (-1 OFF switch, 1 ON switch): -1; higher = weaker reporter binding; details: FMN input: 0 or 200 uM; Eterna round: R93 (includes R88 designs)
Outline: as §1

Sequence | apparent KD of MS2 coat protein (MS2 coat protein [1]) | apparent KD of MS2 coat protein (MS2 coat protein [2])
AAAAAGUGAGGAUAUGUCAAAAGUCACAAAAGUGACAAAAGACAGAAGGCACAUGAGGAUCACCCAUGUGGAAA [Mod of Eli - Late G + early G segment 2] | 0.0286 µM | 0.0321 µM
AAAAAGUGAGGAUAUGUCAAAAGUCACAAAAGUGACAAAAGACAGAAGGCACAUGAGGAUCACCCAUGUGGGAA [Mod of Eli - Late G + early G segment 1] | 0.121 µM | 0.0561 µM
AAAAAGUGAGGAUAUUCGGAUAGGAAAACGAAAACCUAUCCGAAGAAGGCACAUGAGGAUCACCCAUGUGGAAA [67% Ecls-II - Early G + late G segment 2] | 0.0276 µM | 0.0226 µM
AAAAAUGGAGGAUAUACAUGAGGAUCACCCAUGUGUAACUAUACUAAGCACUCCUCACGUAGAAGGCCAAAAAA [Gilly Gone Silly 13 - Jieux - Exclusion 3] | 0.113 µM | 0.0553 µM
AAAACACAUGAGGAUCACCCAUGUGAGGAUAUGAACGAAAAUAAAUAAAAAUAAAAGUUCAGAAGGCACAAAAA [66%, Wbt, 11] | 0.0361 µM | 0.0242 µM
AAAACACAUGAGGAUCACCCAUGUGAGGAUAUGCUAUGGAAAAUAAAAAUAAAACAUAGCAGAAGGCACAAAAA [Denovo 12] | 0.0323 µM | 0.0203 µM
AAAACACAUGAGGAUCACCCAUGUGAGGAUAUGCUAUGGAAAUAAAAAAUAAAACAUAGCAGAAGGCACAAGGA [Mat - Exclusion 1 - Eli mod - D45] | 0.0491 µM | 0.0311 µM
AAAACGGUAGGAUAUACGAUUUGGAACUAAACCGAGGAACCACAUGAGGAUCACCCAUGUAGAAGGGCCAAAAA [Mat - Exclusion 2 - JL mod - D81] | 0.0147 µM | 0.0184 µM
AAAACGGUAGGAUAUACGAUUUGGAACUAGACCGAGGAACCACAUGAGGAUCACCCAUGUAGAAGGGCCAAAAA [EX2 Malc#17] | 0.0107 µM | 0.0156 µM
AAAAGCUCAGGAUAUACGGUCUGUUGUUGAGAAAUAAAAAAACAUGAGGAUCACCCAUGUAGAAGGGAGCGAAA [Exclusion2-cac3] | 0.111 µM | 0.0444 µM
AAAAGGUCAGGAUAUACAAAAAAAAAAAAAAAAAAAAAAAAGUAGAAGGGACAUGAGGAUCACCCAUGUGAAAA [Exclusion 4 - Omei 2] | 0.0403 µM | 0.064 µM
AAAAGUCGAGGAUAUGCAAAAUGAUUGCGAAAGCAAUCAAAACAUGAGGAUCACCCAUGUAGAAGGCGACAAAA [Fiskers Exclusion 2 D3] | 0.0111 µM | 0.0196 µM
AAAAGUUCAGGAUAUACAUGAGGAUCACCCAUGUAGAAAGGAAGUGUAAAAAAAAAGUGUAGAAGGGAGCAUGA [MS2 Riboswitches On Chip Exclusion 3 wbt2] | 0.0218 µM | 0.0222 µM
AAAAUACAUGAGGAUCACCCAUGUCAGGAUAUUCCUGCAGCCUUGAAUAAGGGCUGGUGAAGAAGGGACGGUGA [Ancele] | 0.0846 µM | 0.0334 µM
AAAAUACAUGAGGAUCACCCAUGUGAGGAUAUCUUAAAGGGAAUAAAAUAACUCAAAAAGAGAAGGCACAAAAA [Ex 1 May 29] | 0.044 µM | 0.0358 µM
AAAAUACAUGAGGAUCACCCAUGUGAGGAUAUCUUAAAGGGAAUAAAAUAACUCAAAAAGAGAAGGCGCAAAAA [Ex 1 May 30] | 0.032 µM | 0.0346 µM
AAAAUGUCAGGAUAUGCGAAGGCAUCUGACAGAUGAGGAUUGCAGAAGGGACAUGAGGAUCACCCAUGUAAAAA | 0.0417 µM | 0.0667 µM
AAACCACAUGAGGAUCACCCAUGUGAGGAUAUGAACGAAAUAAAAUAAAAAAUAAAGUUCAGAAGGCACAAAAA [Mat - Exclusion 1 - Eli mod - D15] | 0.0229 µM | 0.0176 µM
AAACGUUGAGGAUAUACAAAAGGGUAUAAAUCAAAAAAAACACAUGAGGAUCACCCAUGUAGAAGGCAACGAAA | 0.0656 µM | 0.128 µM
AAACGUUGAGGAUAUACGAAAAAGGGUAGGUCAAAUAAAACACAUGAGGAUCACCCAUGUAGAAGGCAACGAAA | 0.00366 µM | 0.333 µM
AAAGGACGAGGAUAUACAUGAGGAUCACCCAUGUAAAAAACAUAAGAAAAGAAGUUAUGUAGAAGGCGUCCAAA [69%, Moding Meechl, 13] | 0.0173 µM | 0.0164 µM
AAAGGAUCAGGAUAUGUGUGGGAAAAGUGUGUCCAAAAAAAACAUGAGGAUCACCCAUGUAGAAGGGAUCCAAA [Mod 6 of Normal (20/19) by Nando, Round 1] | 0.265 µM | 0.487 µM
AAAGGGCGAGGAUAUACAUGAGGAUCACCCAUGUAAAAAACAUAAUAAAAGAAUUUAUGUAGAAGGCGCCCAAA [Ruby 60] | 0.0144 µM | 0.0152 µM
AAAGGGUCAGGAUAUCGAUUAAUAAUAAAAUAAAUGAAGAUCGAGAAGGGACAUGAGGAUCACCCAUGUAUAAC [May 79] | 0.0646 µM | 0.0418 µM
AAAGGGUCAGGAUAUGCACGAACAACAAAACAAAUAACGAUGCAGAAGGGACAUGAGGAUCACCCAUGUAUAAA [May 75] | 0.0521 µM | 0.0334 µM
AAAGUGCAAGGAUAUAUAUGAAAAGUUACGAAAGUAACAAAACAUGAGGAUCACCCAUGUAGAAGGUGCACAAA [Seclusion (MS2 riboswitches - Exlclusion 2)] | 0.0183 µM | 0.0246 µM
AAAGUGUAAGGAUAUCUGAAAGGACACGAAAGUGACAAAGAAGAGAAGGUACAUGAGGAUCACCCAUGUAAAAA [milkweed 21] | 0.0181 µM | 0.0287 µM
AAAUAGCAAGGAUAUACAUGAGGAUCACCCAUGUAAGGAUGAUACGUAAUAGAAGAAAGUAGAAGGUGCAAAUA [Ex 3 Tesla 6] | 0.148 µM | 0.0428 µM
AAAUAGGCAGGAUAUACAUGAAAAUUAAAAAAAAAAAAAAAACAUGAGGAUCACCCAUGUAGAAGGGUCAAAAA [Exclusion 2 - Omei 2] | 0.0803 µM | 0.0742 µM
AAAUGACUAGGAUAUACAUGAGGAUCACCCAUGUGUAUAAAUAAAUACACAAAAGAAAGUAGAAGGAGUCAAAA [Ex 3 May 14] | 0.0882 µM | 0.0158 µM
